Measured values reported in IntAct's records for PubMed 22135460.

Each substance was assayed against T1, ltact_bpt4 33 (UniProt P13338).
T1 sequence: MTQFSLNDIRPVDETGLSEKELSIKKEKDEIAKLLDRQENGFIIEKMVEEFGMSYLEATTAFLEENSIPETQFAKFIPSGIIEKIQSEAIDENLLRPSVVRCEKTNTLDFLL
With “DNA-directed RNA polymerase subunit beta (Escherichia coli (strain K12)) (from UniProt P0A8V2) I905A” the “effect of a mutation on the interaction” value was “disrupting interaction strength”.
With “DNA-directed RNA polymerase subunit beta (Escherichia coli (strain K12)) (from UniProt P0A8V2) R903A” the “effect of a mutation on the interaction” value was “disrupting interaction strength”.
With “DNA-directed RNA polymerase subunit beta (Escherichia coli (strain K12)) (from UniProt P0A8V2) K900E” the “effect of a mutation on the interaction” value was “disrupting interaction strength”.
For “DNA-directed RNA polymerase subunit beta (Escherichia coli (strain K12)) (from UniProt P0A8V2) L901A”, the “effect of a mutation on the interaction” value was “disrupting interaction strength”.
In the case of “DNA-directed RNA polymerase subunit beta (Escherichia coli (strain K12)) (from UniProt P0A8V2) F906A”, the “effect of a mutation on the interaction” value is reported as “disrupting interaction strength”.
In the case of “DNA-directed RNA polymerase subunit beta (Escherichia coli (strain K12)) (from UniProt P0A8V2) L902A”, the “effect of a mutation on the interaction” value is reported as “disrupting interaction strength”.
With “DNA-directed RNA polymerase subunit beta (Escherichia coli (strain K12)) (from UniProt P0A8V2) E898A” the “effect of a mutation on the interaction” value was “disrupting interaction strength”.
For “DNA-directed RNA polymerase subunit beta (Escherichia coli (strain K12)) (from UniProt P0A8V2) K900A”, the “effect of a mutation on the interaction” value was “disrupting interaction strength”.
In the case of “DNA-directed RNA polymerase subunit beta (Escherichia coli (strain K12)) (from UniProt P0A8V2) E899A”, the “effect of a mutation on the interaction” value is reported as “disrupting interaction strength”.

These substances were tested against rpod_ecoli rpoD (UniProt P00579).
Chain of rpod_ecoli rpoD (P00579 whole entry): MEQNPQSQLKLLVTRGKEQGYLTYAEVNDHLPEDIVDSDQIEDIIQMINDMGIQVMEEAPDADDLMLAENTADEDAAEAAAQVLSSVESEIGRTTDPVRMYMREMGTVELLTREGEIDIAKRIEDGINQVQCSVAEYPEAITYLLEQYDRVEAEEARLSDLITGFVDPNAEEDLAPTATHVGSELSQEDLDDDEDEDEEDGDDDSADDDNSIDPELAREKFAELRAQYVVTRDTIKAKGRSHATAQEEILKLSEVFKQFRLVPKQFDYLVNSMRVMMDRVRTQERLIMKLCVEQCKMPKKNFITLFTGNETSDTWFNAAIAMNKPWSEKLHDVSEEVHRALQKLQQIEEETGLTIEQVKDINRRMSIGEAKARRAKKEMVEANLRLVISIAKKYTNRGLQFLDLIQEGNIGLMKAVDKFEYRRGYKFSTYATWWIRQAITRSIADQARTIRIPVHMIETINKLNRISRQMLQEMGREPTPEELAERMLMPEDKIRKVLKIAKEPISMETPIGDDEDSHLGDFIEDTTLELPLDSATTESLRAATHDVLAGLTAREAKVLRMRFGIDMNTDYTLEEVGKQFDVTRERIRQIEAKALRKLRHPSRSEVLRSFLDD
“DNA-directed RNA polymerase subunit beta (Escherichia coli (strain K12)) (from UniProt P0A8V2) I905A” was tested, and the “effect of a mutation on the interaction” value was “disrupting interaction strength”.
In the case of “DNA-directed RNA polymerase subunit beta (Escherichia coli (strain K12)) (from UniProt P0A8V2) R903A”, the “effect of a mutation on the interaction” value is reported as “decreasing interaction strength”.
For “DNA-directed RNA polymerase subunit beta (Escherichia coli (strain K12)) (from UniProt P0A8V2) L901A”, the “effect of a mutation on the interaction” value was “disrupting interaction strength”.
In the case of “DNA-directed RNA polymerase subunit beta (Escherichia coli (strain K12)) (from UniProt P0A8V2) F906A”, the “effect of a mutation on the interaction” value is reported as “disrupting interaction strength”.
In the case of “DNA-directed RNA polymerase subunit beta (Escherichia coli (strain K12)) (from UniProt P0A8V2) L902A”, the “effect of a mutation on the interaction” value is reported as “disrupting interaction strength”.
“DNA-directed RNA polymerase subunit beta (Escherichia coli (strain K12)) (from UniProt P0A8V2) E898A” was tested, and the “effect of a mutation on the interaction” value was “disrupting interaction strength”.
With “DNA-directed RNA polymerase subunit beta (Escherichia coli (strain K12)) (from UniProt P0A8V2) K900A” the “effect of a mutation on the interaction” value was “disrupting interaction strength”.
“DNA-directed RNA polymerase subunit beta (Escherichia coli (strain K12)) (from UniProt P0A8V2) E899A” was tested, and the “effect of a mutation on the interaction” value was “decreasing interaction strength”.

These substances were tested against rpos_ecoli rpoS (UniProt P13445).
Chain of rpos_ecoli rpoS (P13445 whole entry): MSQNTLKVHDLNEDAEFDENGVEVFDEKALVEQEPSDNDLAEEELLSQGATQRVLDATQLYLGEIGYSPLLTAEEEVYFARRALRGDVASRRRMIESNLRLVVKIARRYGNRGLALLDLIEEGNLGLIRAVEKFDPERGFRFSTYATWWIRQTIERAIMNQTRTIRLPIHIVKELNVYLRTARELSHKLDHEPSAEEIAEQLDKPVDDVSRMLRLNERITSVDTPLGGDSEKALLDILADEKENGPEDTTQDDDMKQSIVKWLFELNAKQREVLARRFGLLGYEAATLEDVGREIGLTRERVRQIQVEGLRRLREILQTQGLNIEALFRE
For “DNA-directed RNA polymerase subunit beta (Escherichia coli (strain K12)) (from UniProt P0A8V2) I905A”, the “effect of a mutation on the interaction” value was “decreasing interaction strength”.
For “DNA-directed RNA polymerase subunit beta (Escherichia coli (strain K12)) (from UniProt P0A8V2) R903A”, the “effect of a mutation on the interaction” value was “decreasing interaction strength”.
For “DNA-directed RNA polymerase subunit beta (Escherichia coli (strain K12)) (from UniProt P0A8V2) L901A”, the “effect of a mutation on the interaction” value was “disrupting interaction strength”.
“DNA-directed RNA polymerase subunit beta (Escherichia coli (strain K12)) (from UniProt P0A8V2) F906A” was tested, and the “effect of a mutation on the interaction” value was “decreasing interaction strength”.
For “DNA-directed RNA polymerase subunit beta (Escherichia coli (strain K12)) (from UniProt P0A8V2) L902A”, the “effect of a mutation on the interaction” value was “decreasing interaction strength”.
For “DNA-directed RNA polymerase subunit beta (Escherichia coli (strain K12)) (from UniProt P0A8V2) E898A”, the “effect of a mutation on the interaction” value was “decreasing interaction strength”.
